Data on twelve molecules can be found in US20180100026A1 (CALIFORNIA INSTITUTE FOR BIOMEDICAL RESEARCH, published 2018).

The target in experiment [1] is T1, CAR-FITC (CD8 hinge), anti-FITC (FITC-E2 scFv) chimeric antigen receptor on T cells.
T1 construct: FITC-E2 scFv, CD8 hinge and transmembrane region, 41BB and CD3 zeta; also called Anti FITC CAR-EC with CD8 hinge; anti-FITC CAR
Nature of the experiment: flow cytometry on anti-FITC CAR T cells, Alexa Fluor 647 anti-human IgG or anti-human kappa secondary antibody, MFI against concentration. As for the experimental part: (§1) Cells were incubated with indicated switch antibodies at 4° C. for 30-60 min and washed twice with staining buffer (1% BSA in PBS). […] After several washes, samples were acquired on a BD LSR II or BD Accuri C6 and analyzed using FlowJo 7.6.2 software.
(§2) Briefly, cells were incubated with indicated switch antibodies at 4° C. for 30-60 min and washed twice with staining buffer (1% BSA in PBS). […] After several washes, samples were acquired on a BD LSR II or BD Accuri C6 and analyzed using FlowJo 7.6.2 software.

The target in experiment [2] is T1, CAR-FITC (CD8 hinge), anti-FITC …. Description: flow cytometry on anti-FITC CAR-T cells. As for the experimental part:
as §1, §2
A general note: A flow cytometer gives signals particle by particle.

Experiment [3] has as its target T2, CD33 on MOLM14 cells (human, UniProt P20138 18-364).
T2 construct: whole, on cells; also called MOLM-14 cells (CD33+)
Nature of the experiment: flow cytometry on MOLM-14 (CD33+) cells, MFI against Fab concentration, secondary antibody alone subtracted. As for the experimental part: Binding capacity is measured through MFI. MFI of secondary antibody alone was subtracted to account for background and non-specific staining.

Experiment [4] has as its target T2, CD33 on MOLM14 cells. Description: cell-based or functional assay.

T1 sequence (chain, as listed by the source mutant limits assumed): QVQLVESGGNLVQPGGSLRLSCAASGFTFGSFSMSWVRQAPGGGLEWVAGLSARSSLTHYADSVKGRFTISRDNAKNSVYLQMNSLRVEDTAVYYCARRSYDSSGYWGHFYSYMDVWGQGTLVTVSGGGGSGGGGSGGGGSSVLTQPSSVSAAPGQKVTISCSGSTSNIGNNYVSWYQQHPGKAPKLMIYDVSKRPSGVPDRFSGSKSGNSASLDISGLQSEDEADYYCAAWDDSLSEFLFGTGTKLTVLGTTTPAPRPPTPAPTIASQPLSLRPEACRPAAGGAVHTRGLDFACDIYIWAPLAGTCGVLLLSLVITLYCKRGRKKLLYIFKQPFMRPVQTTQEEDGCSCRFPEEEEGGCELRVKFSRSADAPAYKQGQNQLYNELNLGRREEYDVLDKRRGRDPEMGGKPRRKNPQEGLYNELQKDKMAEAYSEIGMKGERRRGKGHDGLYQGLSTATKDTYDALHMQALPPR
T2 sequence (P20138 18-364): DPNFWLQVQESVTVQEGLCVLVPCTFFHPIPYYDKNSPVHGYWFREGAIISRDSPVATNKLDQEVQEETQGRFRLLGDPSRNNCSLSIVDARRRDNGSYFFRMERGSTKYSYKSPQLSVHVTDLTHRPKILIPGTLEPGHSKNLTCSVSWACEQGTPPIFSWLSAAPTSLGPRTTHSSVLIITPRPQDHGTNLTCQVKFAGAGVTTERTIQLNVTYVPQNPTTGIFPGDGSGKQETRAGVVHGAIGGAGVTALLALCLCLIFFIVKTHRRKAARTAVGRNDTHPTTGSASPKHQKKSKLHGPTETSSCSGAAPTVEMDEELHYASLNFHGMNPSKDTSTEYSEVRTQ

B1: random anti-CD19 (FMC63) Fab FITC conjugate (Fab, V domains shown)
VH: EVKLQESGPGLVAPSQSLSVTCTVSGVSLPDYGVSWIRQPPRKGLEWLGVIWGSETTYYNSALKSRLTIIKDNSKSQVFLKMNSLQTDDTAIYYCAKHYYYGGSYAMDYWGQGTSVTVSS
VL: DIQMTQTTSSLSASLGDRVTISCRASQDISKYLNWYQQKPDGTVKLLIYHTSRLHSGVPSRFSGSGSGTDYSLTISNLEQEDIATYFCQQGNTLPYTFGGGTKLEIKR
modifications: FITC-PEG4 by NHS chemistry at the N-terminal amino group (~58% of the conjugates); FITC-PEG4 by NHS chemistry at lysines, largely K31 (~20%) and K141 (~68.4%); paragraph 560 prints positions 31 and 145
notes: Heterogeneous mixture, average FITC to antibody ratio of 2; also called random conjugate; Random (DAR 2)
Molecule B1 returned an EC50 in experiment [1] of 0.0029 nM.

B2: anti-CD19 (FMC63) Fab E-FITC (light chain S202) (Fab, V domains shown)
VH: EVKLQESGPGLVAPSQSLSVTCTVSGVSLPDYGVSWIRQPPRKGLEWLGVIWGSETTYYNSALKSRLTIIKDNSKSQVFLKMNSLQTDDTAIYYCAKHYYYGGSYAMDYWGQGTSVTVSS
VL: DIQMTQTTSSLSASLGDRVTISCRASQDISKYLNWYQQKPDGTVKLLIYHTSRLHSGVPSRFSGSGSGTDYSLTISNLEQEDIATYFCQQGNTLPYTFGGGTKLEIKR
modifications: position 202 of the whole light chain = pAzF conjugated with BCN-PEG4-FITC
notes: Monovalent, distal site; also called LS202
In experiment [1], B2 gave an EC50 of 0.007 nM.

B3: anti-CD19 (FMC63) Fab D-FITC (heavy chain A121) (Fab, V domains shown)
VH: EVKLQESGPGLVAPSQSLSVTCTVSGVSLPDYGVSWIRQPPRKGLEWLGVIWGSETTYYNSALKSRLTIIKDNSKSQVFLKMNSLQTDDTAIYYCAKHYYYGGSYAMDYWGQGTSVTVSS
VL: DIQMTQTTSSLSASLGDRVTISCRASQDISKYLNWYQQKPDGTVKLLIYHTSRLHSGVPSRFSGSGSGTDYSLTISNLEQEDIATYFCQQGNTLPYTFGGGTKLEIKR
modifications: position 121 of the whole heavy chain = pAzF conjugated with BCN-PEG4-FITC
notes: Monovalent, medial site; also called HA121
B3 had an EC50 in experiment [1] of 0.0095 nM.

B4: anti-CD19 (FMC63) Fab B-FITC (heavy chain S74) (Fab, V domains shown)
VH: EVKLQESGPGLVAPSQSLSVTCTVSGVSLPDYGVSWIRQPPRKGLEWLGVIWGSETTYYNSALKSRLTIIKDNSKSQVFLKMNSLQTDDTAIYYCAKHYYYGGSYAMDYWGQGTSVTVSS
VL: DIQMTQTTSSLSASLGDRVTISCRASQDISKYLNWYQQKPDGTVKLLIYHTSRLHSGVPSRFSGSGSGTDYSLTISNLEQEDIATYFCQQGNTLPYTFGGGTKLEIKR
modifications: position 74 = pAzF conjugated with BCN-PEG4-FITC
notes: Monovalent, proximal site; also called HS74
B4 had an EC50 in experiment [1] of 0.0091 nM.

B5: anti-CD19 (FMC63) Fab C-FITC (light chain T109) (Fab, V domains shown)
VH: EVKLQESGPGLVAPSQSLSVTCTVSGVSLPDYGVSWIRQPPRKGLEWLGVIWGSETTYYNSALKSRLTIIKDNSKSQVFLKMNSLQTDDTAIYYCAKHYYYGGSYAMDYWGQGTSVTVSS
VL: DIQMTQTTSSLSASLGDRVTISCRASQDISKYLNWYQQKPDGTVKLLIYHTSRLHSGVPSRFSGSGSGTDYSLTISNLEQEDIATYFCQQGNTLPYTFGGGTKLEIKR
modifications: position 109 of the whole light chain = pAzF conjugated with BCN-PEG4-FITC
notes: Monovalent, medial site; also called LT109
Molecule B5 displayed a 50% effective concentration (EC50) in experiment [1] of 0.0064 nM.

B6: anti-CD19 (FMC63) Fab F-FITC (heavy chain K136) (Fab, V domains shown)
VH: EVKLQESGPGLVAPSQSLSVTCTVSGVSLPDYGVSWIRQPPRKGLEWLGVIWGSETTYYNSALKSRLTIIKDNSKSQVFLKMNSLQTDDTAIYYCAKHYYYGGSYAMDYWGQGTSVTVSS
VL: DIQMTQTTSSLSASLGDRVTISCRASQDISKYLNWYQQKPDGTVKLLIYHTSRLHSGVPSRFSGSGSGTDYSLTISNLEQEDIATYFCQQGNTLPYTFGGGTKLEIKR
modifications: position 136 of the whole heavy chain = pAzF conjugated with BCN-PEG4-FITC
notes: Monovalent, distal site; also called HK136
The molecule B6 yielded an EC50 in experiment [1] of 0.0092 nM.

B7: anti-CD19 (FMC63) Fab AB-FITC (light chain G68 and heavy chain S74) (Fab, V domains shown)
VH: EVKLQESGPGLVAPSQSLSVTCTVSGVSLPDYGVSWIRQPPRKGLEWLGVIWGSETTYYNSALKSRLTIIKDNSKSQVFLKMNSLQTDDTAIYYCAKHYYYGGSYAMDYWGQGTSVTVSS
VL: DIQMTQTTSSLSASLGDRVTISCRASQDISKYLNWYQQKPDGTVKLLIYHTSRLHSGVPSRFSGSGSGTDYSLTISNLEQEDIATYFCQQGNTLPYTFGGGTKLEIKR
modifications: position 74 = pAzF conjugated with BCN-PEG4-FITC; position 68 = pAzF conjugated with BCN-PEG4-FITC
notes: Bivalent, proximal sites; also called anti-CD19 AB-FITC; LG68/HS74
For the molecule B7, the EC50 in experiment [1] was 0.0034 nM.

B8: anti-CD19 (FMC63) Fab EF-FITC (light chain S202 and heavy chain K136) (Fab, V domains shown)
VH: EVKLQESGPGLVAPSQSLSVTCTVSGVSLPDYGVSWIRQPPRKGLEWLGVIWGSETTYYNSALKSRLTIIKDNSKSQVFLKMNSLQTDDTAIYYCAKHYYYGGSYAMDYWGQGTSVTVSS
VL: DIQMTQTTSSLSASLGDRVTISCRASQDISKYLNWYQQKPDGTVKLLIYHTSRLHSGVPSRFSGSGSGTDYSLTISNLEQEDIATYFCQQGNTLPYTFGGGTKLEIKR
modifications: position 136 of the whole heavy chain = pAzF conjugated with BCN-PEG4-FITC; position 202 of the whole light chain = pAzF conjugated with BCN-PEG4-FITC
notes: Bivalent, distal sites; also called LS202/HK136
As for B8, the EC50 in experiment [2] is roughly 3 nM; in experiment [1], 0.0029 nM.

B9: anti-CD19 (FMC63) Fab A-FITC (light chain G68) (Fab, V domains shown)
VH: EVKLQESGPGLVAPSQSLSVTCTVSGVSLPDYGVSWIRQPPRKGLEWLGVIWGSETTYYNSALKSRLTIIKDNSKSQVFLKMNSLQTDDTAIYYCAKHYYYGGSYAMDYWGQGTSVTVSS
VL: DIQMTQTTSSLSASLGDRVTISCRASQDISKYLNWYQQKPDGTVKLLIYHTSRLHSGVPSRFSGSGSGTDYSLTISNLEQEDIATYFCQQGNTLPYTFGGGTKLEIKR
modifications: position 68 = pAzF conjugated with BCN-PEG4-FITC
notes: Monovalent, proximal site; also called LG68
In turn, B9 gave an EC50 in experiment [1] of 0.0094 nM.

B10: anti-CD33 Fab (clone hM195) (Fab, V domains shown)
VH: QVQLVQSGAEVKKPGSSVKVSCKASGYTFTDYNMHWVRQAPGQGLEWIGYIYPYNGGTGYNQKFKSKATITADESTNTAYMELSSLRSEDTAVYYCARGRPAMDYWGQGTLVTVSS
VL: DIQMTQSPSSLSASVGDRVTITCRASESVDNYGISFMNWFQQKPGKAPKLLIYAASNQGSGVPSRFSGSGSGTDFTLNISSLQPDDFATYYCQQSKEVPWTFGQGTKVEIKR
As for B10, the midpoint of the response in experiment [3], the EC50, lay at 1800 nM.

B11: anti-CD33 hP67.6 AB-FITC switch (light chain G72 and heavy chain P75) (Fab, V domains shown)
VH: EVQLVQSGAEVKKPGSSVKVSCKASGYTITDSNIHWVRQAPGQSLEWIGYIYPYNGGTDYNQKFKNRATLTVDNXTNTAYMELSSLRSEDTAFYYCVNGNPWLAYWGQGTLVTVSS
VL: DIQLTQSPSTLSASVGDRVTITCRASESLDNYGIRFLTWFQQKPGKAPKLLMYAASNQGSGVPSRFSGSGSXTEFTLTISSLQPDDFATYYCQQTKEVPWSFGQGTKVEVKR
modifications: position 75 = pAzF conjugated with a cyclooctyne-PEG-FITC linker; position 72 = pAzF conjugated with a cyclooctyne-PEG-FITC linker
As for B11, in experiment [4], the “EC50 of cytotoxicity of anti-FITC CAR-T cells against MOLM14 cells” value was found to be 0.0065 nM and the “efficacy in MOLM14 against the optimized anti-CD33 hM195 CD-FITC switch” value was roughly 3 fold.

B12: anti-CD33 Fab (clone hP67.6) (Fab, V domains shown)
VH: EVQLVQSGAEVKKPGSSVKVSCKASGYTITDSNIHWVRQAPGQSLEWIGYIYPYNGGTDYNQKFKNRATLTVDNPTNTAYMELSSLRSEDTAFYYCVNGNPWLAYWGQGTLVTVSS
VL: DIQLTQSPSTLSASVGDRVTITCRASESLDNYGIRFLTWFQQKPGKAPKLLMYAASNQGSGVPSRFSGSGSGTEFTLTISSLQPDDFATYYCQQTKEVPWSFGQGTKVEVKR
In the case of B12, the EC50 in experiment [3] came out at 3.96 nM.

The EC50 is the concentration needed to bring the measured effect to its halfway point. Low values mean a more potent agent, high ones a less potent agent.
